From publication PMC10399917 (Journal of Molecular Cell Biology, 2023)

Experiments:
[1] = target: His-TMPRSS2 (transmembrane serine protease 2 with N-terminal 6x histidines) (UniProt O15393); test: […]
[2] = target: VF-TMPRSS2 (transmembrane serine protease 2 with N-terminal Venus-FLAG) (UniProt O15393); test: […]
Chain of VF-TMPRSS2 (transmembrane serine protease 2 with N-terminal Venus-FLAG) (O15393 whole entry): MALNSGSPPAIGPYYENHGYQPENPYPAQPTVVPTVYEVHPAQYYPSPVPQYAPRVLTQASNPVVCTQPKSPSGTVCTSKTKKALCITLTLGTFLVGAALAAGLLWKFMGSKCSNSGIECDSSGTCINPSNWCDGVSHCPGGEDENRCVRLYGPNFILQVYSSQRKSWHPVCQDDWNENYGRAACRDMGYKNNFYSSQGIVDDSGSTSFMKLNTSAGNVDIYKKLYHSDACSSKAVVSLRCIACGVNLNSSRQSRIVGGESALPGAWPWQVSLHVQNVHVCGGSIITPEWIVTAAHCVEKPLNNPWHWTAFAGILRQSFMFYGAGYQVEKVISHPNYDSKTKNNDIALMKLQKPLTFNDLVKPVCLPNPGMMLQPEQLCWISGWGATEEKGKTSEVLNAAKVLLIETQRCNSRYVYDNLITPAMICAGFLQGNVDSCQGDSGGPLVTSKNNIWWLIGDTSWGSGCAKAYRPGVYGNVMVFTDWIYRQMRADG

Chain of His-TMPRSS2 (transmembrane serine protease 2 with N-terminal 6x histidines) (O15393 whole entry): as above

SPIKE-FLAG (SARS-CoV-2 SPIKE glycoprotein with C-terminal FLAG) (from UniProt P0DTC2 14-1273) (natural protein)
S/B ratio (TR-FRET signal-to-background) [1]: > 23

SPIKE-His (SARS-CoV-2 SPIKE glycoprotein with C-terminal 6x histidines) (from UniProt P0DTC2 14-1273) (natural protein)
S/B ratio (TR-FRET signal-to-background) [2]: > 23

SPIKE-VF (SARS-CoV-2 SPIKE glycoprotein with C-terminal Venus-FLAG) (from UniProt P0DTC2 14-1273) (natural protein)
S/B ratio (TR-FRET signal-to-background) [1]: 23
